Measurements as given in patent US20200024322A1 (Eli Lilly, published 2020).
Numbered stars: 1 amine (or outer) side, 2 acyl side, 3 side chain; on linkers, the order of the positions; unused ones are H or OH. Square brackets hold non-standard residues; d marks the D form. Side chains are listed from the residue outwards. Ends that are not written are not given here. * marks the point of attachment. C20 diacid = O=C(O)CCCCCCCCCCCCCCCCCCC(=O)*; γGlu = O=C(O)[C@H](CCC(=O)[*:2])N[*:1]; AEEA = NCCOCCOCC(=O)O; Aib = CC(C)(N)C(=O)O

T1: human GIP receptor (human, UniProt P48546 22-466)
T1 construct: whole, on cells; Used as crude membranes of stably transfected CHO cells; also called hGIPR
T1 sequence (looked up): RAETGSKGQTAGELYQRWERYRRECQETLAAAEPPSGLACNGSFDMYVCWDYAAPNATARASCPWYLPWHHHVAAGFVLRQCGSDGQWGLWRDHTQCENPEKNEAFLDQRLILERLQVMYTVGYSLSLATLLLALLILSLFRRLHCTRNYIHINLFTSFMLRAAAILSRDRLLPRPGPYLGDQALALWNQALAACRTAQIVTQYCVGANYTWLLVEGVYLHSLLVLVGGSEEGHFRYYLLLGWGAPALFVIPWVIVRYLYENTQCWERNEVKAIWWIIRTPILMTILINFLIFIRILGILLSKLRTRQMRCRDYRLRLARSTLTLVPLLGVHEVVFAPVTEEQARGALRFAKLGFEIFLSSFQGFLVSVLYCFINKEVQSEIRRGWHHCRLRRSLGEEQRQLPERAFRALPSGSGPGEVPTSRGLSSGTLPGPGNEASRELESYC

B1: Example 40 (peptide)
peptide: Y[Aib]EGTFTSDYSILLDKIAQ[Aib]AFIEYLIEGGK([AEEA-AEEA-γGlu-C20 diacid])SSGAPPPS-NH2
modifications: N-terminus assumed
SMILES: CC[C@H](C)[C@H](NC(=O)[C@H](CCCCN)NC(=O)[C@H](CC(=O)O)NC(=O)[C@H](CC(C)C)NC(=O)[C@H](CC(C)C)NC(=O)[C@@H](NC(=O)[C@H](CO)NC(=O)[C@H](Cc1ccc(O)cc1)NC(=O)[C@H](CC(=O)O)NC(=O)[C@H](CO)NC(=O)[C@@H](NC(=O)[C@H](Cc1ccccc1)NC(=O)[C@@H](NC(=O)CNC(=O)[C@H](CCC(=O)O)NC(=O)C(C)(C)NC(=O)[C@@H](N)Cc1ccc(O)cc1)[C@@H](C)O)[C@@H](C)O)[C@@H](C)CC)C(=O)N[C@@H](C)C(=O)N[C@@H](CCC(N)=O)C(=O)NC(C)(C)C(=O)N[C@@H](C)C(=O)N[C@@H](Cc1ccccc1)C(=O)N[C@H](C(=O)N[C@@H](CCC(=O)O)C(=O)N[C@@H](Cc1ccc(O)cc1)C(=O)N[C@@H](CC(C)C)C(=O)N[C@H](C(=O)N[C@@H](CCC(=O)O)C(=O)NCC(=O)NCC(=O)N[C@@H](CCCCNC(=O)COCCOCCNC(=O)COCCOCCNC(=O)CC[C@H](NC(=O)CCCCCCCCCCCCCCCCCCC(=O)O)C(=O)O)C(=O)N[C@@H](CO)C(=O)N[C@@H](CO)C(=O)NCC(=O)N[C@@H](C)C(=O)N1CCC[C@H]1C(=O)N1CCC[C@H]1C(=O)N1CCC[C@H]1C(=O)N[C@@H](CO)C(N)=O)[C@@H](C)CC)[C@@H](C)CC
B2: Example 41 (peptide)
peptide: Y[Aib]EGTFTSDYSILLDKIAQ[Aib]AFIEYLIEGGPK([AEEA-AEEA-γGlu-C20 diacid])SGAPPPS-NH2
modifications: N-terminus assumed
SMILES: CC[C@H](C)[C@H](NC(=O)[C@H](CCCCN)NC(=O)[C@H](CC(=O)O)NC(=O)[C@H](CC(C)C)NC(=O)[C@H](CC(C)C)NC(=O)[C@@H](NC(=O)[C@H](CO)NC(=O)[C@H](Cc1ccc(O)cc1)NC(=O)[C@H](CC(=O)O)NC(=O)[C@H](CO)NC(=O)[C@@H](NC(=O)[C@H](Cc1ccccc1)NC(=O)[C@@H](NC(=O)CNC(=O)[C@H](CCC(=O)O)NC(=O)C(C)(C)NC(=O)[C@@H](N)Cc1ccc(O)cc1)[C@@H](C)O)[C@@H](C)O)[C@@H](C)CC)C(=O)N[C@@H](C)C(=O)N[C@@H](CCC(N)=O)C(=O)NC(C)(C)C(=O)N[C@@H](C)C(=O)N[C@@H](Cc1ccccc1)C(=O)N[C@H](C(=O)N[C@@H](CCC(=O)O)C(=O)N[C@@H](Cc1ccc(O)cc1)C(=O)N[C@@H](CC(C)C)C(=O)N[C@H](C(=O)N[C@@H](CCC(=O)O)C(=O)NCC(=O)NCC(=O)N1CCC[C@H]1C(=O)N[C@@H](CCCCNC(=O)COCCOCCNC(=O)COCCOCCNC(=O)CC[C@H](NC(=O)CCCCCCCCCCCCCCCCCCC(=O)O)C(=O)O)C(=O)N[C@@H](CO)C(=O)NCC(=O)N[C@@H](C)C(=O)N1CCC[C@H]1C(=O)N1CCC[C@H]1C(=O)N1CCC[C@H]1C(=O)N[C@@H](CO)C(N)=O)[C@@H](C)CC)[C@@H](C)CC
B3: Example 42 (peptide)
peptide: Y[Aib]EGTFTSDYSILLDKIAQ[Aib]AFIEYLIEGGPSK([AEEA-AEEA-γGlu-C20 diacid])GAPPPS-NH2
modifications: N-terminus assumed
SMILES: CC[C@H](C)[C@H](NC(=O)[C@H](CCCCN)NC(=O)[C@H](CC(=O)O)NC(=O)[C@H](CC(C)C)NC(=O)[C@H](CC(C)C)NC(=O)[C@@H](NC(=O)[C@H](CO)NC(=O)[C@H](Cc1ccc(O)cc1)NC(=O)[C@H](CC(=O)O)NC(=O)[C@H](CO)NC(=O)[C@@H](NC(=O)[C@H](Cc1ccccc1)NC(=O)[C@@H](NC(=O)CNC(=O)[C@H](CCC(=O)O)NC(=O)C(C)(C)NC(=O)[C@@H](N)Cc1ccc(O)cc1)[C@@H](C)O)[C@@H](C)O)[C@@H](C)CC)C(=O)N[C@@H](C)C(=O)N[C@@H](CCC(N)=O)C(=O)NC(C)(C)C(=O)N[C@@H](C)C(=O)N[C@@H](Cc1ccccc1)C(=O)N[C@H](C(=O)N[C@@H](CCC(=O)O)C(=O)N[C@@H](Cc1ccc(O)cc1)C(=O)N[C@@H](CC(C)C)C(=O)N[C@H](C(=O)N[C@@H](CCC(=O)O)C(=O)NCC(=O)NCC(=O)N1CCC[C@H]1C(=O)N[C@@H](CO)C(=O)N[C@@H](CCCCNC(=O)COCCOCCNC(=O)COCCOCCNC(=O)CC[C@H](NC(=O)CCCCCCCCCCCCCCCCCCC(=O)O)C(=O)O)C(=O)NCC(=O)N[C@@H](C)C(=O)N1CCC[C@H]1C(=O)N1CCC[C@H]1C(=O)N1CCC[C@H]1C(=O)N[C@@H](CO)C(N)=O)[C@@H](C)CC)[C@@H](C)CC
B4: Example 43 (peptide)
peptide: Y[Aib]EGTFTSDYSILLDKIAQ[Aib]AFIEYLIEGGPSSK([AEEA-AEEA-γGlu-C20 diacid])APPPS-NH2
modifications: N-terminus assumed
SMILES: CC[C@H](C)[C@H](NC(=O)[C@H](CCCCN)NC(=O)[C@H](CC(=O)O)NC(=O)[C@H](CC(C)C)NC(=O)[C@H](CC(C)C)NC(=O)[C@@H](NC(=O)[C@H](CO)NC(=O)[C@H](Cc1ccc(O)cc1)NC(=O)[C@H](CC(=O)O)NC(=O)[C@H](CO)NC(=O)[C@@H](NC(=O)[C@H](Cc1ccccc1)NC(=O)[C@@H](NC(=O)CNC(=O)[C@H](CCC(=O)O)NC(=O)C(C)(C)NC(=O)[C@@H](N)Cc1ccc(O)cc1)[C@@H](C)O)[C@@H](C)O)[C@@H](C)CC)C(=O)N[C@@H](C)C(=O)N[C@@H](CCC(N)=O)C(=O)NC(C)(C)C(=O)N[C@@H](C)C(=O)N[C@@H](Cc1ccccc1)C(=O)N[C@H](C(=O)N[C@@H](CCC(=O)O)C(=O)N[C@@H](Cc1ccc(O)cc1)C(=O)N[C@@H](CC(C)C)C(=O)N[C@H](C(=O)N[C@@H](CCC(=O)O)C(=O)NCC(=O)NCC(=O)N1CCC[C@H]1C(=O)N[C@@H](CO)C(=O)N[C@@H](CO)C(=O)N[C@@H](CCCCNC(=O)COCCOCCNC(=O)COCCOCCNC(=O)CC[C@H](NC(=O)CCCCCCCCCCCCCCCCCCC(=O)O)C(=O)O)C(=O)N[C@@H](C)C(=O)N1CCC[C@H]1C(=O)N1CCC[C@H]1C(=O)N1CCC[C@H]1C(=O)N[C@@H](CO)C(N)=O)[C@@H](C)CC)[C@@H](C)CC
B5: Example 44 (peptide)
peptide: Y[Aib]EGTFTSDYSILLDKIAQ[Aib]AFIEYLIEGGPSSGK([AEEA-AEEA-γGlu-C20 diacid])PPPS-NH2
modifications: N-terminus assumed
SMILES: CC[C@H](C)[C@H](NC(=O)[C@H](CCCCN)NC(=O)[C@H](CC(=O)O)NC(=O)[C@H](CC(C)C)NC(=O)[C@H](CC(C)C)NC(=O)[C@@H](NC(=O)[C@H](CO)NC(=O)[C@H](Cc1ccc(O)cc1)NC(=O)[C@H](CC(=O)O)NC(=O)[C@H](CO)NC(=O)[C@@H](NC(=O)[C@H](Cc1ccccc1)NC(=O)[C@@H](NC(=O)CNC(=O)[C@H](CCC(=O)O)NC(=O)C(C)(C)NC(=O)[C@@H](N)Cc1ccc(O)cc1)[C@@H](C)O)[C@@H](C)O)[C@@H](C)CC)C(=O)N[C@@H](C)C(=O)N[C@@H](CCC(N)=O)C(=O)NC(C)(C)C(=O)N[C@@H](C)C(=O)N[C@@H](Cc1ccccc1)C(=O)N[C@H](C(=O)N[C@@H](CCC(=O)O)C(=O)N[C@@H](Cc1ccc(O)cc1)C(=O)N[C@@H](CC(C)C)C(=O)N[C@H](C(=O)N[C@@H](CCC(=O)O)C(=O)NCC(=O)NCC(=O)N1CCC[C@H]1C(=O)N[C@@H](CO)C(=O)N[C@@H](CO)C(=O)NCC(=O)N[C@@H](CCCCNC(=O)COCCOCCNC(=O)COCCOCCNC(=O)CC[C@H](NC(=O)CCCCCCCCCCCCCCCCCCC(=O)O)C(=O)O)C(=O)N1CCC[C@H]1C(=O)N1CCC[C@H]1C(=O)N1CCC[C@H]1C(=O)N[C@@H](CO)C(N)=O)[C@@H](C)CC)[C@@H](C)CC
B6: Example 45 (peptide)
peptide: Y[Aib]EGTFTSDYSILLDKIAQ[Aib]AFIEYLIEGGPSSGAK([AEEA-AEEA-γGlu-C20 diacid])PPS-NH2
modifications: N-terminus assumed
SMILES: CC[C@H](C)[C@H](NC(=O)[C@H](CCCCN)NC(=O)[C@H](CC(=O)O)NC(=O)[C@H](CC(C)C)NC(=O)[C@H](CC(C)C)NC(=O)[C@@H](NC(=O)[C@H](CO)NC(=O)[C@H](Cc1ccc(O)cc1)NC(=O)[C@H](CC(=O)O)NC(=O)[C@H](CO)NC(=O)[C@@H](NC(=O)[C@H](Cc1ccccc1)NC(=O)[C@@H](NC(=O)CNC(=O)[C@H](CCC(=O)O)NC(=O)C(C)(C)NC(=O)[C@@H](N)Cc1ccc(O)cc1)[C@@H](C)O)[C@@H](C)O)[C@@H](C)CC)C(=O)N[C@@H](C)C(=O)N[C@@H](CCC(N)=O)C(=O)NC(C)(C)C(=O)N[C@@H](C)C(=O)N[C@@H](Cc1ccccc1)C(=O)N[C@H](C(=O)N[C@@H](CCC(=O)O)C(=O)N[C@@H](Cc1ccc(O)cc1)C(=O)N[C@@H](CC(C)C)C(=O)N[C@H](C(=O)N[C@@H](CCC(=O)O)C(=O)NCC(=O)NCC(=O)N1CCC[C@H]1C(=O)N[C@@H](CO)C(=O)N[C@@H](CO)C(=O)NCC(=O)N[C@@H](C)C(=O)N[C@@H](CCCCNC(=O)COCCOCCNC(=O)COCCOCCNC(=O)CC[C@H](NC(=O)CCCCCCCCCCCCCCCCCCC(=O)O)C(=O)O)C(=O)N1CCC[C@H]1C(=O)N1CCC[C@H]1C(=O)N[C@@H](CO)C(N)=O)[C@@H](C)CC)[C@@H](C)CC

Key:
human GIP receptor = molecular target: T1, human GIP receptor; test: SPA, [125I]-GIP displacement, hGIPR membranes
human glucagon receptor = molecular target: T2, human glucagon receptor (human, UniProt P47871 26-477); test: SPA, [125I]-Gcg displacement, hGcgR membranes
T2 construct: whole, on cells; Used as crude membranes of stably transfected HEK293 cells; also called hGcgR; hGLcgR

human GLP-1 receptor = molecular target: T3, human GLP-1 receptor (human, UniProt P43220 24-463); test: SPA, [125I]-GLP-1 displacement, hGLP-1R membranes
T3 construct: whole, on cells; Used as crude membranes of stably transfected HEK293 cells; also called hGLP1R; hGLP-1R

T2 sequence (P47871 26-477): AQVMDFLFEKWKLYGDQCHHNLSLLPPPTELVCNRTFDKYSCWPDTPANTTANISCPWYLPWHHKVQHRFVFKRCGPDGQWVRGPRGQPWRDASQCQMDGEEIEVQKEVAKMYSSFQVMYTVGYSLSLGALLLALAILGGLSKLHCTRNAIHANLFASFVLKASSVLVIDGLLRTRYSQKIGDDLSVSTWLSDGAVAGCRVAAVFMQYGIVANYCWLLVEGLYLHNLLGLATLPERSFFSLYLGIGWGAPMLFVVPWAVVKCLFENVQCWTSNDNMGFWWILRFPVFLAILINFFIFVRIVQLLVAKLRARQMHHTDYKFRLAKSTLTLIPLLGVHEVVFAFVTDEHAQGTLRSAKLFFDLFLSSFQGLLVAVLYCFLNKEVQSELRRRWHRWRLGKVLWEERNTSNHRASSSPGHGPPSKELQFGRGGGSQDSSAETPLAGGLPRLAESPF

Binder	Ki (human GIP receptor)	Ki (human glucagon receptor)	Ki (human GLP-1 receptor)
B1	0.0345 nM	150 nM	7.56 nM
B2	0.0551 nM	165 nM	13.4 nM
B3	0.0514 nM	160 nM	13.2 nM
B4	0.101 nM	134 nM	11.8 nM
B5	0.0516 nM	121 nM	10.6 nM
B6	0.0463 nM	11.1 nM	5.65 nM
